Results as given in patent publication US20050176101.

Experiments:
[1] = target: His-tagged human c-MET kinase domain constructs (various lengths) coexpressed with PTP1B from pET-N6 BI-PTP, unphosphorylated
[2] = target: T1, His-tagged human Abl kinase domain G227-V515 coexpressed with PTP1b phosphatase domain (pET-SPEC BI-PTP Abl G227-V515-X), unphosphorylated
T1 chain: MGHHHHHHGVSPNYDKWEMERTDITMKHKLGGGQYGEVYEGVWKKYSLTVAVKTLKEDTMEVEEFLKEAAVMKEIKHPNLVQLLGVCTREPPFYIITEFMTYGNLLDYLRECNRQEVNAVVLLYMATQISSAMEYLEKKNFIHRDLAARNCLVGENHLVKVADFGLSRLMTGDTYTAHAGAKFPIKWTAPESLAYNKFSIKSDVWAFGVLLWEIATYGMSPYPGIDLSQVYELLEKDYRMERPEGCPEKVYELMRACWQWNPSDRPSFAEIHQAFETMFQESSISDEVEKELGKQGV

B1: human PTP1b phosphatase domain, residues Met 1 to Gly 283 (protein)
chain: MEMEKEFEQIDKSGSWAAIYQDIRHEASDFPCRVAKLPKNKNRNRYRDVSPFDHSRIKLHQEDNDYINASLIKMEEAQRSYILTQGPLPNTCGHFWEMVWEQKSRGVVMLNRVMEKGSLKCAQYWPQKEEKEMIFEDTNLKLTLISEDIKSYYTVRQLELENLTTQETREILHFHYTTWPDFGVPESPASFLNFLFKVRESGSLSPEHGPVVVHCSAGIGRSGTFCLADTCLLLMDKRKDPSSVDIKKVLLEMRKFRMGLIQTADQLRFSYLAVIEGAKFIMG
[1]
  state of phosphorylation (methods as described for the Abl kinase domain): When expressed alone the MET was phosphorylated and when coexpressed with PTP1B the MET was unphosphorylated
[2]
  state of phosphorylation detectable with PY20 anti-phospho-Tyr antibody (Western blot): the Abl coexpressed with PTP1B has little or no phosphorylation above background, whereas Abl coexpressed alone is highly phosphorylated
